{"source": "paper PMC7611331", "about": "(Nature microbiology, 2019)", "target": "T1, native FtsZ (Streptococcus pneumoniae R800, UniProt A0A0H2ZNE0 1-419)", "T1 sequence (looked up)": "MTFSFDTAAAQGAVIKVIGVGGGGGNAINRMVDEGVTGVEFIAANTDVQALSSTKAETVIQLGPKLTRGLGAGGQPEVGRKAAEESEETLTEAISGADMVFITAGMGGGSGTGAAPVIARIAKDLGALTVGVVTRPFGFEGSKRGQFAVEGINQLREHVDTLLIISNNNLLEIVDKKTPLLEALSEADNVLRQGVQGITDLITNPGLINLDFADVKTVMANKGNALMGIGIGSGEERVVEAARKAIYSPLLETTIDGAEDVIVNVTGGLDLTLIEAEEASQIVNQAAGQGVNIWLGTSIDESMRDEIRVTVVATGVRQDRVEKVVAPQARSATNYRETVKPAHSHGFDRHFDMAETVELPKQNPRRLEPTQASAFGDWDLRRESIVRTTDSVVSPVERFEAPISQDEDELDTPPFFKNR", "test": "MST", "data": [{"binder": "RocS-ΔAH-6His (domain or fragment, Streptococcus pneumoniae R800, UniProt Q8DQ15 1-150, looked up, labeled with the red dye NT-647) MSIEMTVSEIAEVLGLSRQAINNRVKELPEEDTDKNDKGVTVVTRSGLIKLEEIYKKTIFEDEPVSEDVKQRELMEILVDEKNAEILRLYEQLKAKDRQLSEKDEQMRIKDRQIAEKDKQLDQQQQLTLQAMKDQENLKLELDQAKEEVQ", "values": [{"measurement": "binding result", "result": "binds"}]}]}
